According to publication PMC6385231, “Activity-Regulated Cytoskeleton-Associated Protein (Arc/Arg3.1) is Transiently Expressed after Heat Shock Stress and Suppresses Heat Shock Factor 1” (Scientific Reports, 2019):

Molecular target: T1, GST-tagged human HSF1 (human, UniProt Q00613 1-529)
T1 construct: Heat shock factor 1 (HSF1), human (hHSF1); The authors surmise that GST dimers induce HSF1 oligomerisation; also called GST-HSF1; GST-hHSF1
T1 sequence (looked up): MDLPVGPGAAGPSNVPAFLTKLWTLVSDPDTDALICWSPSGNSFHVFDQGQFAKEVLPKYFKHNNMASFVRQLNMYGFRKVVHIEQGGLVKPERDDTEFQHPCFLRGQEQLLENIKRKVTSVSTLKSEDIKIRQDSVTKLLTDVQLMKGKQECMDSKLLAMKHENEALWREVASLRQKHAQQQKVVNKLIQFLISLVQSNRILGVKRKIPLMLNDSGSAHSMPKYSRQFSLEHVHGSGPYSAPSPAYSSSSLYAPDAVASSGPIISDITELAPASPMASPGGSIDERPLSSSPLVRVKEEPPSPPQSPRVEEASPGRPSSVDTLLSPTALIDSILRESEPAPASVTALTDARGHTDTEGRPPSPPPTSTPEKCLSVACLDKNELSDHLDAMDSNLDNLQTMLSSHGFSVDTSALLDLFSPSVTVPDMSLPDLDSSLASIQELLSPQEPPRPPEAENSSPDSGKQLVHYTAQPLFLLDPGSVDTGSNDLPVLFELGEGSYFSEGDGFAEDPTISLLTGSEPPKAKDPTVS
Assay: pull-down; GST or GST-hHSF1 on glutathione-agarose beads incubated with purified His-Arc in 20 mM MOPS pH 7.2, 100 mM KCl, 0.5% Tween, 2 μg/mL aprotinin, 3 h at 4°C; Western analysis with anti-GST and anti-Arc; with and without heat shock treatment
Settings: both partners purified

B1: His-tagged human Arc/Arg3.1 (natural protein, UniProt Q7LC44 1-396, looked up)
chain: MELDHRTSGGLHAYPGPRGGQVAKPNVILQIGKCRAEMLEHVRRTHRHLLAEVSKQVERELKGLHRSVGKLESNLDGYVPTSDSQRWKKSIKACLCRCQETIANLERWVKREMHVWREVFYRLERWADRLESTGGKYPVGSESARHTVSVGVGGPESYCHEADGYDYTVSPYAITPPPAAGELPGQEPAEAQQYQPWVPGEDGQPSPGVDTQIFEDPREFLSHLEEYLRQVGGSEEYWLSQIQNHMNGPAKKWWEFKQGSVKNWVEFKKEFLQYSEGTLSREAIQRELDLPQKQGEPLDQFLWRKRDLYQTLYVDADEEEIIQYVVGTLQPKLKRFLRHPLPKTLEQLIQRGMEVQDDLEQAAEPAGPHLPVEDEAETLTPAPNSESVASDRTQPE
notes: Arc/Arg3.1 (activity-regulated cytoskeleton-associated protein), human (hArc/Arg3.1); The construct and its purification are not described in the methods; also called His-Arc; His-Arc/Arg3.1; source: purified
B1: binds.
